How the values were obtained:
human L-SIGN = biological target: T1, human L-SIGN (Homo sapiens, UniProt Q9H2X3); assay: FACS binding to K562 cells expressing human L-SIGN (selectivity); conditions: FACS MFI
T1 construct: expressed in transfected cells; host or cells: K562, retroviral transduction
T1 sequence (Q9H2X3 1-399): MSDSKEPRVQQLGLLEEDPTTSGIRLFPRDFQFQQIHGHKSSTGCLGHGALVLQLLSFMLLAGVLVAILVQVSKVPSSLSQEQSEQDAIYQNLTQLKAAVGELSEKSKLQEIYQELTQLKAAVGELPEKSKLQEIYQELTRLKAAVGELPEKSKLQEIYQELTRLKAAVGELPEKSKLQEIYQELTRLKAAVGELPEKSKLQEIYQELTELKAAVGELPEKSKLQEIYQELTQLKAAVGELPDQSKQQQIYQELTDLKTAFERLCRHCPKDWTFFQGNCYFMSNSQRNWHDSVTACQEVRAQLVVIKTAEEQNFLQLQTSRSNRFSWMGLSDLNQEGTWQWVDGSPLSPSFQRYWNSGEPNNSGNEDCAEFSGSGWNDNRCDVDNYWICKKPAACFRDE
Method: (§1) The affinity of various antibodies and ADCs to DC-SIGN and its species orthologues was determined using FACS. Purified IgGs were titrated to determine EC50 values for binding to cell surface expressed DC-SIGN.
(§2) For this purpose, human DC-SIGN expressing or cynomolgus monkey DC-SIGN expressing stable CHO cell lines or K562 expressing DC-SIGN or K562 expressing L-SIGN cell lines were checked for density and viability using VICELL (Beckman Coulter), and washed once with 4° C. PBS. Cells were stained with DAPI (0.5 ug/mL) diluted in PBS for 30 min on ice. Cells were diluted into 4° C. FACS buffer (PBS, 10 mM EDTA, 2% FBS). 125 μl of cells were seeded (10,000 cells/well) into 96-well v-bottom plates (Nunc cat#442587) and centrifuged for 4 min at 1500 rpm at 4° C. Supernatant was removed. Cells were incubated with a serial dilution of each anti-DC-SIGN antibody in FACS buffer at concentrations ranging across several logs with a top concentration no higher than 50 μg/mL for 60 minutes at 4° C. Following incubation, cells were spun down (1500 rpm, 4 min, 4° C.) and washed two times with FACS buffer. A fluorophore-conjugated anti-hFc gamma-AF-647 (Southern Biotechnology) detection antibody was added at 1:400 and samples were incubated for 1 h on ice in the dark. Following incubation, FACS buffer was added, and the cells were spun down (1500 rpm, 4 min, 4° C.) and washed two times with FACS buffer. After the final wash, cells were resuspended in Fixative Buffer (Biolegend, 420801) and 90 μl of FACS buffer followed by readout on the flow cytometry machine (BD LSRFortessa Cell Analyzer; Cat #647177). Geometric Mean fluorescence intensity (MFI) of live, single cells was calculated in Flowjo 10.4.2 and exported into Graphpad Prism7 for EC50 determination.
Selectivity was assessed by measuring apparent binding affinities to isogenic cell pairs engineered to overexpress DC-SIGN as well as cell lines expressing DC-SIGN paralog L-SIGN.

human DC-SIGN [1] = biological target: T2, human DC-SIGN (Homo sapiens, UniProt Q9NNX6); assay: FACS binding to K562 cells expressing human DC-SIGN; conditions: FACS MFI
T2 construct: expressed in transfected cells
T2 sequence (Q9NNX6 1-404): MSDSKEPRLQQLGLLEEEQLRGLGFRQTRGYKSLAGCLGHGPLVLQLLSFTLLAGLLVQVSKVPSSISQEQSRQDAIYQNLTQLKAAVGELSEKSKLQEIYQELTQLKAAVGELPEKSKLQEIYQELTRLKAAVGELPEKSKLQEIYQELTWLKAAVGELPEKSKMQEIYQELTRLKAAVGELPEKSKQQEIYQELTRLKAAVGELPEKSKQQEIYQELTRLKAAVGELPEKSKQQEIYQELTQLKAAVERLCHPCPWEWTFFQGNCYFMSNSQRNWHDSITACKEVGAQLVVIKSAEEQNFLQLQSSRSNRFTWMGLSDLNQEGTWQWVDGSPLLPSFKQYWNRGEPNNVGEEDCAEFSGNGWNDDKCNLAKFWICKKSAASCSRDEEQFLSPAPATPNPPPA
Method: as §1, §2

[2] = tested on: cynomolgus monkey DC-SIGN; assay: FACS binding to CHO cells stably expressing cynomolgus monkey DC-SIGN; conditions: FACS MFI, average
Method: as §1, §2
In a similar experiment the antibodies were tested for cross-reactivity using engineered isogenic matched cell line.

human DC-SIGN [3] = biological target: T2, human DC-SIGN; assay: FACS binding to CHO cells stably expressing human DC-SIGN; conditions: FACS MFI, average
Method: as §1, §2

Sequence of cynomolgus monkey DC-SIGN (as listed by the source): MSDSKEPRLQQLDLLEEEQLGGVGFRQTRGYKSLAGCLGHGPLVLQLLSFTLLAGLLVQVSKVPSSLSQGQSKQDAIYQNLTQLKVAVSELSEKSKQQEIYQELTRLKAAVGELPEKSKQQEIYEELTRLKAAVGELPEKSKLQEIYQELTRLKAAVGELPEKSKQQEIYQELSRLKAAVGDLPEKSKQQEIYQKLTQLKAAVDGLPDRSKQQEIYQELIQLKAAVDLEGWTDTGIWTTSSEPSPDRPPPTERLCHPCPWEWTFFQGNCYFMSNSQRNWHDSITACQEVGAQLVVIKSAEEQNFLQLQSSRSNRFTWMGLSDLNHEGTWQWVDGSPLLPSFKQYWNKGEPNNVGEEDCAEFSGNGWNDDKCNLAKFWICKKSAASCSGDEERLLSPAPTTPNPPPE

B1: 952P16 N92Q: optimization of sequences by removal of post-translational modifications, non-preferred sites; substitutions made by site directed mutagenesis (antibody)
heavy: QVTLRESGPALVKPTQTLTLTCTFSGFSLSTSGVSVSWIRQPPGKALEWLALIDWDDDKYYSTSLKTRLTISKDTSKNQVVLTMTNMDPVDTATYYCARTPSGSYGRYFDLWGRGTLVTVSSASTKGPSVFPLAPSSKSTSGGTAALGCLVKDYFPCPVTVSWNSGALTSGVHTFPAVLQSSGLYSLSSVVTVPSSSLGTQTYICNVNHKPSNTKVDKRVEPKSCDKTHTCPPCPAPELLGGPSVFLFPPKPKDTLMISRTPEVTCVVVAVSHEDPEVKFNWYVDGVEVHNAKTKPREEQYNSTYRVVSVLTVLHQDWLNGKEYKCKVSNKALAAPIEKTISKAKGQPREPQVYTLPPSREEMTKNQVSLTCLVKGFYPCDIAVEWESNGQPENNYKTTPPVLDSDGSFFLYSKLTVDKSRWQQGNVFSCSVMHEALHNHYTQKSLSLSPGK
light: DIQMTQSPSTLSASVGDRVTITCRASQSISNWLAWYQQKPGKAPKLLIYKASSLESGVPSRFSGSGSGTEFTLTISSLQPDDFATYYCQQYQSYWTFGQGTKVEIKRTVAAPSVFIFPPSDEQLKSGTASVVCLLNNFYPREAKVQWKVDNALQSGNSQESVTEQDSKDSTYSLSSTLTLSKADYEKHKVYACEVTHQGLSSPVTKSFNRGEC
Q: What does the source list for B1?
A: human L-SIGN K562 EC50 (human L-SIGN): >10 µg/mL; human DC-SIGN K562 EC50 (human DC-SIGN [1]): 0.024 µg/mL

B2: 952G04 N92Q: optimization of sequences by removal of post-translational modifications, non-preferred sites; substitutions made by site directed mutagenesis (antibody)
heavy: QVTLRESGPALVKPTQTLTLTCTFSGFSLSTSGVSVTWIRQPPGKALEWLALIDWDDDKYYSTSLKTRLAISKDTSKNQVVLTMTNMDPVDTATYYCARTPSGSYGRYFDLWGRGTLVTVSSASTKGPSVFPLAPSSKSTSGGTAALGCLVKDYFPCPVTVSWNSGALTSGVHTFPAVLQSSGLYSLSSVVTVPSSSLGTQTYICNVNHKPSNTKVDKRVEPKSCDKTHTCPPCPAPELLGGPSVFLFPPKPKDTLMISRTPEVTCVVVAVSHEDPEVKFNWYVDGVEVHNAKTKPREEQYNSTYRVVSVLTVLHQDWLNGKEYKCKVSNKALAAPIEKTISKAKGQPREPQVYTLPPSREEMTKNQVSLTCLVKGFYPCDIAVEWESNGQPENNYKTTPPVLDSDGSFFLYSKLTVDKSRWQQGNVFSCSVMHEALHNHYTQKSLSLSPGK
light: DIQMTQSPSTLSASVGDRVTITCRASQSISTWLAWYQQKPGKAPKLLIYEASSLESGVPSRFSGSGSGTEFTLTISSLQPDDFATYYCQQYQSYWTFGQGTKVEIKRTVAAPSVFIFPPSDEQLKSGTASVVCLLNNFYPREAKVQWKVDNALQSGNSQESVTEQDSKDSTYSLSSTLTLSKADYEKHKVYACEVTHQGLSSPVTKSFNRGEC
Q: How did the “cyno DC-SIGN CHO EC50 (ug/mL) ave.” value [2] turn out when B2 was run?
A: 0.02 µg/mL

Q: And the “human L-SIGN K562 EC50” value (human L-SIGN)?
A: >10 µg/mL

Q: And the “human DC-SIGN CHO EC50 (ug/mL) ave.” value (human DC-SIGN [3])?
A: 0.07 µg/mL

Q: And the “human DC-SIGN K562 EC50” value (human DC-SIGN [1])?
A: 0.017 µg/mL

B3: 2B2 Chimeric: chimeric antibody chains comprising a murine variable region and human constant region (antibody)
heavy: EVQLQQSGAELVRPGSSVKMSCKTSGYTFTNYGINWVKQRPGQGLEWIGYIYIGNDYTEYNERFKGKATLTSDTSSSTAHIQLNSLTSEDSAIYFCARLYYGSSLYSYAMDYWGQGTSVTVSSASTKGPSVFPLAPSSKSTSGGTAALGCLVKDYFPCPVTVSWNSGALTSGVHTFPAVLQSSGLYSLSSVVTVPSSSLGTQTYICNVNHKPSNTKVDKRVEPKSCDKTHTCPPCPAPELLGGPSVFLFPPKPKDTLMISRTPEVTCVVVAVSHEDPEVKFNWYVDGVEVHNAKTKPREEQYNSTYRVVSVLTVLHQDWLNGKEYKCKVSNKALAAPIEKTISKAKGQPREPQVYTLPPSREEMTKNQVSLTCLVKGFYPCDIAVEWESNGQPENNYKTTPPVLDSDGSFFLYSKLTVDKSRWQQGNVFSCSVMHEALHNHYTQKSLSLSPGK
light: DIVMTQAAPSVSVTPGESVSISCRSSKSLLHSSGNTYLYWFLQRPGQSPQLLISRMSNLASGVPDRFSGSGSGTAFTLRISRVEAEDVGVYYCMQHLEYPYTFGGGTKLELKRTVAAPSVFIFPPSDEQLKSGTASVVCLLNNFYPREAKVQWKVDNALQSGNSQESVTEQDSKDSTYSLSSTLTLSKADYEKHKVYACEVTHQGLSSPVTKSFNRGEC
Q: How did the “human L-SIGN K562 EC50” value (human L-SIGN) turn out when B3 was run?
A: >10 µg/mL

B4: 1G12 Hz: humanized VL and VH domains of antibody 1G12 (antibody)
heavy: QVQLQESGPGLVKPSETLSLTCTVSGFSLTNYGVHWIRQPPGKGLEWIGVIWRGESTDYNAAFMSRVTISKDDSKSQVSLKLSSVTAADTAVYYCARNGGSSGWYFDVWGQGTTVTVSSASTKGPSVFPLAPSSKSTSGGTAALGCLVKDYFPCPVTVSWNSGALTSGVHTFPAVLQSSGLYSLSSVVTVPSSSLGTQTYICNVNHKPSNTKVDKRVEPKSCDKTHTCPPCPAPELLGGPSVFLFPPKPKDTLMISRTPEVTCVVVAVSHEDPEVKFNWYVDGVEVHNAKTKPREEQYNSTYRVVSVLTVLHQDWLNGKEYKCKVSNKALAAPIEKTISKAKGQPREPQVYTLPPSREEMTKNQVSLTCLVKGFYPCDIAVEWESNGQPENNYKTTPPVLDSDGSFFLYSKLTVDKSRWQQGNVFSCSVMHEALHNHYTQKSLSLSPGK
light: DIQLTQSPSFLSASVGDRVTITCKASQDVTSAVAWYQQKPGKAPKLLIYWTSTRHTGVPSRFSGSGSGTEYTLTISSLQPEDFATYYCQQHYTTPLTFGQGTKLEIKRTVAAPSVFIFPPSDEQLKSGTASVVCLLNNFYPREAKVQWKVDNALQSGNSQESVTEQDSKDSTYSLSSTLTLSKADYEKHKVYACEVTHQGLSSPVTKSFNRGEC
Q: B4 was tested. Which “cyno DC-SIGN CHO EC50 (ug/mL) ave.” value [2] did it give?
A: 0.06 µg/mL

Q: What about the “human L-SIGN K562 EC50” value (human L-SIGN) of the same molecule?
A: >10 µg/mL

Q: And the “human DC-SIGN CHO EC50 (ug/mL) ave.” value (human DC-SIGN [3])?
A: 0.07 µg/mL

Q: What about the “human DC-SIGN K562 EC50” value (human DC-SIGN [1]) of the same molecule?
A: 0.021 µg/mL

B5: 960K03 N92S: optimization of sequences by removal of post-translational modifications, non-preferred sites; substitutions made by site directed mutagenesis (antibody)
heavy: QVTLRESGPALVKPTQTLTLTCTFSGFSLSTGGMSVSWIRQPPGKALEWLALIDWDDDKYYSTSLKTRLTISKDTSKNQLVLTMTNMDPVDTATYYCARAHSGSYFDFWGQGTLVTVSSASTKGPSVFPLAPSSKSTSGGTAALGCLVKDYFPCPVTVSWNSGALTSGVHTFPAVLQSSGLYSLSSVVTVPSSSLGTQTYICNVNHKPSNTKVDKRVEPKSCDKTHTCPPCPAPELLGGPSVFLFPPKPKDTLMISRTPEVTCVVVAVSHEDPEVKFNWYVDGVEVHNAKTKPREEQYNSTYRVVSVLTVLHQDWLNGKEYKCKVSNKALAAPIEKTISKAKGQPREPQVYTLPPSREEMTKNQVSLTCLVKGFYPCDIAVEWESNGQPENNYKTTPPVLDSDGSFFLYSKLTVDKSRWQQGNVFSCSVMHEALHNHYTQKSLSLSPGK
light: DIQMTQSPSTLSASVGDRVTITCRASQRISNWLAWYQQKPGKAPKLLIYKASSLESGVPSRFSGSGSGTEFTLTISSLQPDDFATYYCQQFSSYWTFGQGTKVEIKRTVAAPSVFIFPPSDEQLKSGTASVVCLLNNFYPREAKVQWKVDNALQSGNSQESVTEQDSKDSTYSLSSTLTLSKADYEKHKVYACEVTHQGLSSPVTKSFNRGEC
Q: What does the source list for B5?
A: cyno DC-SIGN CHO EC50 (ug/mL) ave. [2]: 0.08 µg/mL; human DC-SIGN CHO EC50 (ug/mL) ave. (human DC-SIGN [3]): 0.06 µg/mL; human DC-SIGN K562 EC50 (human DC-SIGN [1]): 0.049 µg/mL
